{"source": "patent US20110152352", "about": "“SMAD PROTEINS CONTROL DROSHA-MEDIATED MIRNA MATURATION” (Tufts University, published 2011)", "binders": {"B1": {"name": "cel-miR-67 RNA duplex (dsRNA)", "RNA 1": "UCACAACCUCCUAGAAAGAGUAGA", "RNA 2": "UCUACUCUUUCUAGGAGGUUGUGA"}, "B2": {"name": "miR-21 duplex (annealed oligos) (dsRNA)", "RNA 1": "UAGCUUAUCAGACUGAUGUUGA", "RNA 2": "UCAACAUCAGUCUGAUAAGCUA"}, "B3": {"name": "pri-miR-21 from pCMV-miR-21 (480 nt; hairpin sequence given) (ssRNA)", "RNA": "UGUCGGGUAGCUUAUCAGACUGAUGUUGACUGUUGAAUCUCAUGGCAACACCAGUCGAUGGGCUGUCUGACA"}, "B4": {"name": "miR-21 RNA duplex (dsRNA)", "RNA 1": "UAGCUUAUCAGACUGAUGUUGA", "RNA 2": "UCAACAUCAGUCUGAUAAGCUA"}}, "key": {"Smad4 full length": {"molecular_target": "Smad4 full length (UniProt Q13485 Q13485:1-552)", "sequence (Q13485 whole entry, the tested form may be a part, one chain of several)": "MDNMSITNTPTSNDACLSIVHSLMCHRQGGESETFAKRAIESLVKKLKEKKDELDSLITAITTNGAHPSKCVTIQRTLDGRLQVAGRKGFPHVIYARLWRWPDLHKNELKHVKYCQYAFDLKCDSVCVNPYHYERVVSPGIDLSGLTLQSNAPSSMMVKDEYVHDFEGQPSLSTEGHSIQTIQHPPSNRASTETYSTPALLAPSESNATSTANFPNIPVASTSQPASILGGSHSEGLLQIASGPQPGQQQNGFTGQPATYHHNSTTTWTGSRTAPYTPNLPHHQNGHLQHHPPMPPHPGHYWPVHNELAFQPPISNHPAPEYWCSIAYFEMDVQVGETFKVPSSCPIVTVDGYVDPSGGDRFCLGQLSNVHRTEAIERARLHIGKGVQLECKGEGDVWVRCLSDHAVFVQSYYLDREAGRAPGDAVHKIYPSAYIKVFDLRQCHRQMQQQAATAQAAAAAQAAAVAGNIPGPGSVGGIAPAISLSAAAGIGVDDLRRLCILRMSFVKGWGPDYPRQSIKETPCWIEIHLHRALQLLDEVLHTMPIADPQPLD", "assay": "pulldown", "conditions": "tags: GST fusion, E. coli", "method": "(§1) In vitro GST-SMAD-RNA pull down assay: GST-smad fusion proteins were expressed in E. coli, isolated and bound to glutathione S-sepharose beads. Following partial purification, Smad bound beads were washed 4×5 min at 4° C. in wash buffer (10 mM Tris-HCl pH 7.6, 0.5M LiCl, 0.1% triton) and 1×10 at 4° C. in binding buffer (20 mM Tris-HCl pH 7.6, 0.1M KCl, 0.1% Tween-20, 0.1% Triton). Beads were resuspended in 100 ul binding buffer and pre-incubated with 25 ug tRNA, 1 ng poly-[dI-dC] and 2 μl RNAse inhibitor for 10 minutes before the addition of 10 pmoles synthesized mature miRNA or ˜20 pmoles in vitro transcribed 156 by pri-miR-21. Following 1 hr incubation with rocking at 4° C., beads were washed 4× with binding buffer. 2 consecutive elutions of bound RNA were performed by addition of 100 ul Elution buffer (1% SDS, 0.15M NaCl) followed by rocking at room temperature for 15 min. The eluates were combined, […] Trizol-LS (Invitrogen) was added and the RNA was purified as usual. RNA was re-suspended in 20 μl water and 1 μl was used in a reverse transcriptase reaction followed by quantitative real time PCR to detect relative levels of RNA binding to Smad-GST fusion proteins."}, "Smad1 full length [1]": {"molecular_target": "T1, Smad1 full length (UniProt Q15797 Q15797:1-465)", "T1 sequence (Q15797 whole entry, the tested form may be a part, one chain of several)": "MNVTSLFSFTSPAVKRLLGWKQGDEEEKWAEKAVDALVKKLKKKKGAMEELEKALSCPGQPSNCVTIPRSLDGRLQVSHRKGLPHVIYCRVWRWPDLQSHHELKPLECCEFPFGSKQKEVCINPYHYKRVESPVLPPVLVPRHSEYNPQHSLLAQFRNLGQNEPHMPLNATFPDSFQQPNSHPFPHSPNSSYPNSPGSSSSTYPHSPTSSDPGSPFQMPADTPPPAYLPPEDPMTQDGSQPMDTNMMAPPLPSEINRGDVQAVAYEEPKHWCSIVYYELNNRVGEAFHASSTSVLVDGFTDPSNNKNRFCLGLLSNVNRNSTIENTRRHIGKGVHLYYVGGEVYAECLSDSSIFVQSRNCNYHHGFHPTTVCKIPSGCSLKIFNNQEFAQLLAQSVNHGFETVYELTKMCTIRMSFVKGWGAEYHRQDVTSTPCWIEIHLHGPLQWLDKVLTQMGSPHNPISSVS", "assay": "pulldown; control duplex without CAGAC", "conditions": "tags: GST fusion, E. coli", "method": "as §1"}, "Smad3 full length [2]": {"molecular_target": "T2, Smad3 full length (UniProt P84022 P84022:1-425)", "T2 sequence (P84022 whole entry, the tested form may be a part, one chain of several)": "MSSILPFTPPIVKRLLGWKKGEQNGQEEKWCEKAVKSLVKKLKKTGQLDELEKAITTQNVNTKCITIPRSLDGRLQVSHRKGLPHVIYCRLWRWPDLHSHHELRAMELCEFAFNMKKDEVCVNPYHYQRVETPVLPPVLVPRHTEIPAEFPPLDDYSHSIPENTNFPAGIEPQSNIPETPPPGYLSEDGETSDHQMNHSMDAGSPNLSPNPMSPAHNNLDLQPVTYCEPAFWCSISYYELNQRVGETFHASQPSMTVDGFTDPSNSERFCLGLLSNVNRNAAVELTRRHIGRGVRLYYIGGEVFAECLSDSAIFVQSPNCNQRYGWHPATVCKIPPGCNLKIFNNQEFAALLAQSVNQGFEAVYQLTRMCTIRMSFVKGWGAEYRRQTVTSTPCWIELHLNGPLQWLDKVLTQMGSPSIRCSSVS", "assay": "pulldown; control duplex without CAGAC", "conditions": "tags: GST fusion, E. coli", "method": "as §1"}, "Smad1 MH1 domain [3]": {"molecular_target": "T3, Smad1 MH1 domain (UniProt Q15797 Q15797:1-219)", "T3 sequence (Q15797 1-219, one chain of several)": "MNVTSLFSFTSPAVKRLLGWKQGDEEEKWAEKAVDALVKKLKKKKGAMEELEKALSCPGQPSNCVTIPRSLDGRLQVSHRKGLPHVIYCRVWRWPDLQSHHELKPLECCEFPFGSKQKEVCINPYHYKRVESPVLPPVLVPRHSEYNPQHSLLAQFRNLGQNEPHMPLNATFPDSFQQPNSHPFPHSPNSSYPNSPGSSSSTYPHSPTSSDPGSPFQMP", "assay": "pulldown; specific for miR-21 duplex", "conditions": "tags: GST fusion, E. coli", "method": "as §1"}, "Smad1 MH1 domain [4]": {"molecular_target": "T3, Smad1 MH1 domain", "assay": "pulldown; excess yeast tRNA", "conditions": "tags: GST fusion, E. coli", "method": "(§2) To examine the interaction of SMAD proteins with double stranded CAGAC sequences of miRNA we performed RNA pull down experiments. Gst-Smad fusion proteins were expressed in E. coli and partially purified. As a proof of principal, we used mature miR-21 sequences (see below). ssRNA oligonucleotides were annealed to make dsRNA. GST-Pull down experiments were performed using the standard methods including aspects of those disclosed herein in the presence of excess amount of non-specific RNAa (yeast tRNAs). Full length GST-SMAD1 fusion protein and a GST-SMAD1 N-terminal (n219) MH1 domain interact with double stranded CAGAC sequences of miR-21\n(§3) In vitro GST-SMAD-RNA pull down assay: GST-smad fusion proteins were expressed in E. coli, isolated and bound to glutathione S-sepharose beads. Following partial purification, Smad bound beads were washed 4×5 min at 4° C. in wash buffer (10 mM Tris-HCl pH 7.6, 0.5M LiCl, 0.1% triton) and 1×10 at 4° C. in binding buffer (20 mM Tris-HCl pH 7.6, 0.1M KCl, 0.1% Tween-20, 0.1% Triton). […] RNA was re-suspended in 20 μl water and 1 μl was used in a reverse transcriptase reaction followed by quantitative real time PCR to detect relative levels of RNA binding to Smad-GST fusion proteins."}, "Smad1 full length [5]": {"molecular_target": "T1, Smad1 full length", "assay": "pulldown; excess yeast tRNA", "conditions": "tags: GST fusion, E. coli", "method": "as §2, §3"}, "Smad1": {"molecular_target": "Smad1 (UniProt Q15797 Q15797:1-465)", "sequence (Q15797 whole entry, one chain of several)": "as the sequence (Q15797 whole entry, the tested form may be a part, one chain of several) above", "assay": "RNA-ChIP", "conditions": "tags: Flag, Cos7; hairpin with flanks", "method": "RNA-ChIP. Was performed as previously described [Fukuda, T. et al., Nat Cell Biol 9, 604-611 (2007)]. Briefly, PASMCs or Cos7 cells were crosslinked for 15 minutes with 1% formaldehyde, the cell pellet was resuspended in Buffer A (5 mM PIPES, pH 8.0, 85 mM KCl, 0.5% Nonidet P-40). After 10 min on ice, the crude nuclei fraction was isolated by centrifugation, and then suspended in Buffer B (1% SDS, 10 mM EDTA, 50 mM Tris-HCl, pH 8.1). After nuclei were disrupted by sonication, the lysates were cleared and subjected to immunoprecipitation with anti-Flag, anti-Smad1/5/8, Smad2/3, or p68 antibody, prior to stringent washing, and elution. The RNA was isolated using Trizol (invitrogen). Pellets were resuspended in 100 μl TE and incubated with DNase I (10 U) for 30 min at 37° C. to remove any remaining DNA. Following extraction with phenol:chloroform (5:1), RNA was precipitated with ethanol and dissolved in 20 μl of water. […] of RNA was used for a 20 μl cDNA synthesis reaction. Quantitative PCR reactions were then performed by real-time PCR machine (iQ5, Bio-Rad). Average of three experiments each performed in triplicate with standard errors are presented."}, "Smad1 MH1 domain [6]": {"molecular_target": "T3, Smad1 MH1 domain", "assay": "pulldown; MH1 sufficient", "conditions": "tags: GST fusion, E. coli", "method": "as §1"}, "Smad3 full length [7]": {"molecular_target": "T2, Smad3 full length", "assay": "pulldown", "conditions": "tags: GST fusion, E. coli", "method": "as §1"}, "Smad1 full length [8]": {"molecular_target": "T1, Smad1 full length", "assay": "pulldown; tRNA and poly dI-dC, 0.1 M KCl, 4 C", "conditions": "tags: GST fusion, E. coli", "method": "as §1"}}, "data": [{"binder": "B1", "values": [{"measurement": "binding result", "setting": "Smad4 full length", "result": "no binding"}, {"measurement": "binding result", "setting": "Smad1 full length [1]", "result": "no binding"}, {"measurement": "binding result", "setting": "Smad3 full length [2]", "result": "no binding"}, {"measurement": "binding result", "setting": "Smad1 MH1 domain [3]", "result": "no binding"}]}, {"binder": "B2", "values": [{"measurement": "binding result", "setting": "Smad1 MH1 domain [4]", "result": "binds"}, {"measurement": "binding result", "setting": "Smad1 full length [5]", "result": "binds"}]}, {"binder": "B3", "values": [{"measurement": "binding signal", "setting": "Smad1", "result": 3, "unit": "fold induction by BMP4"}]}, {"binder": "B4", "values": [{"measurement": "binding result", "setting": "Smad1 MH1 domain [6]", "result": "binds"}, {"measurement": "binding result", "setting": "Smad3 full length [7]", "result": "binds"}, {"measurement": "binding result", "setting": "Smad4 full length", "result": "no binding"}, {"measurement": "binding result", "setting": "Smad1 full length [8]", "result": "binds"}]}]}
